Data taken from the DeepSol protein solubility set.

Test: soluble on expression in E. coli; label from the status in PepcDB or PDB records

Sequence: MGHHHHHHSHMANSMANSLSSTQTDYRLSDDLLGPVLAILDAYIDPYLAKGLVSAGCVNKLAIEGKRLQLGLVYPYPCMTQYRDTVMALTNKLAVLDAIDEVECEIDFQPKVYSAIASIAPIANVKQVIAVASGKGGVGKSTTAVNLALALAAEGAQVGILDADIYGPSVPLMLGIPNFRPVSPDGKHMTAASAYGIAAQSIGFMLSGDEAAVWRGPMAAGALAQLLNETQWPELDYLVVDMPPGTGDIQLTLSQKVPVSGAVIVTTPQDIALADAKKGITMFQKVNIPVLGIVENMSFHLCPECGHKEHPFGTHGGSKMAERYQVPLLGALPLHINIREAMDVGAPTVVAEPDSEVAALYREIARKVGAELALKQSQKTVSISVSDDE
- soluble on expression in E. coli: not soluble

Sequence: MGSDKIHHHHHHMSDVSPARALGIDFGTSNSTVGWHRPGVESLIALEDGKITLPSVVFFNIEERRPVYGRLALHEYLEGYEGRLMRSLKSLLGSKLIKHDTSVLGSALPFKDLLGMFIGELKKRAEAAAGREFDQVVLGRPVFFVDEDPAADQEAEDTLAEVARKIGFKDVSFQYEPIAAAFDYESSISREELVLIVDIGGGTSDFTLIRLSPERHLVAERQSDILATGGVHIGGTDFDKQLSLQGVMPLFGYGSRMKSGALMPTSYHLNLATWHTINALYSQKSQLALGSMRYDIEDSFGIDRLFKLIEQRAGHWLAMEVEASKIELTEHDSRHIDLRRVEPELTAELTRTLFEEAIEGLLERVRGSVTELLAKAGVSEGQVDTVFFTGGSSGIPALRNSVSAMLPNARHVEGNIFGSIGSGLAIEARKRYGAA
- soluble on expression in E. coli: not soluble

Sequence: MPYEMKFKGVYVLAMEDNSSFKGKIEVGDTVTGVDGKSFKSSEELMNYIKAQKVNQKVTVQFIQDGKAKEATGKLIELPTDKKAGIGIGLTDHTLEHHHHHH
- soluble on expression in E. coli: soluble

Sequence: MGILKSLFTLGKSFVAQAEEAIDEAQGVRMLEQHIRDAKAELDKAGKSRVDLLARVKLSHDKLNDLRERKASLETRALAAMSKNVDAALLNEVAEEIARLENAILAEEQVLTNLEASRDAVEKAVTATGQRIAQFEQQLEVVKATEAMQRAQQAVTTSTVGAASNVSTAAESLKRLQTRQAERQARLDAAAQLEKVADGRDLDEKLAQAGIGATNKSNAQGVLARLQRQQGELEHHHHHH
- soluble on expression in E. coli: not soluble

Sequence: MSLQIAQVLVDVPTMQTNRPYSYRIPTAWQSQVQPGMRVVVPFGRGKRRVQGFVLALDDVTNFDGELKPIDAVVDLAPVLNTEALALTKWLAASTFSFQITCAQTMLPAVMRAKYEKQLRTTATTPATIRTTLFGDQSMVPFDDVATTPAIVSQLLRLQAAGQVDVYYQVKNQARRKTQTAVKAALTNEALQAAVDQVRAGATQQLAVLQGLLTLNGEQLSQKAFCTRFDVTDGAIRTAVQKGWLKKVAVEVYRDPYATSDIKTTKALQLNDEQQVAVDQITQAVDQAATTTFLLEGVTGSGKTEVYLQSMAAALVQGKTALMLVPEISLTPQMVQRVKGRFGKAVAVLHSGLSSGEKYDEWRRIQRGEAQVVVGARSAVFAPLKNLGLIVMDEEHESTYKQDDAPRYHARQVALWRSRYHNCPVVLGSATPSLETRARAEKGVYQRLLLADRVNRRPLPKVSIIDMKKEMQQHAESNFSAPLLVALQDRLERHEQSVLMLNRRGYSSFVLCRDCGFVLKCPNCDISLTLHMDTHTMKCHYCGHEEAIPRNCPNCHSRQIRYYGTGTEKVEEELQDLLPDANIIRMDNDTTRKKGAHAKLLAQFGSGEADILIGTQMIAKGLDFPNVTLVGVLNADTALGLPDFRASERTFQLLTQVSGRAGRAEKSGHVYIQTFNPDHYAIRFAQHHDYEGFFKYEMQMRHRGGYPPYYFTVQITASDLDEGVAAKRMYQLLQWLRPRLAPSTILLGPTPKPIARVNRRYYYQIVIKYKQEPNLAQTLTTLLHETQAQQRQGLQIGIDVEPLHFMEGHHHHHH
- soluble on expression in E. coli: soluble

Sequence: RSLIAGYDPLILDVSHGFNISEFARIANTLDDTTYTSLTPMQLLKAMDTLEGIESLRRFAAILVGGAPLRADDLRAAKELGINVVTTYGSSETSGGCVYNGRPIPGAKVRVV
- soluble on expression in E. coli: not soluble

Sequence: MQDTIFLKGMRFYGYHGALSAENEIGQIFKVDVTLKVDLSEAGRTDNVIDTVHYGEVFEEVKSIMEGKAVNLLEHLAERIANRINSQYNRVMETKVRITKENPPIPGHYDGVGIEIVRENK
- soluble on expression in E. coli: soluble

Sequence: MSLKDSGILFVDDDILFLALLRECFMQRGIVIQCAENGEDALQMIQQRPFALLLTDLQMPGMDGLELAGKARKLMPDLPIVLCTGAVTPEVCALAEEIGIAQVVRKPIRFSELFAIVGNIVSLQQTEGHHHHHH
- soluble on expression in E. coli: soluble

Sequence: MGSDKIHHHHHHMADQMQWANALSTRHSLEAAVTDVVERAVSLLTAPADLGLVFISSAFTSEYSRLLPLLAEKLSVPVLIGCSGGGVIGTTVNGEIQELEAEPAISLTLAHLPGVKVQVFHVVAEELPDLDSSPDAWVDLIGVPASPTPQFILLSSSFASGINDLLQGLDFAYPGSVIVGGQASGGGMGGRVALFCNESDGEECQSLYREGTVGIALTGNIVLETIVAQGCRPIGKPLQVTKADRNIILELDEQVPLVVLRDLIASLSEHERTLAQHSLFVGVAMDEFKLALQQGDFLIRGILGVDPTAGAIAIGDRVRPGQRLQFHLRDAQASAEDLELLLQSYQTQRESEPSAVAALMFACLGRGEGLYGKPNFDSELFRRYLSDIPVGGFFCGGEIGPVGGRTFLHAYTSAFGICRQNQL
- soluble on expression in E. coli: not soluble

Sequence: MTEIQTIRKKVEQQITSLQNETDEIAEFNQAKVLDAFQENKVSDFHFNPSTGYGYDDEGRDTLERVYASVFKTEAALVRPQIISGTHAISTVLFGILRPGDELLYITGEPYDTLEEIVGIRSEGQGSLKDFQIGYDAVPLLPNGEIDYPAVSKKISANTKMIGIQRSRGYADRPSFTIEKIKEMVTFVKNINPNIIVFVDNCYGEFVERIEPTEVGADIIAGSLIKNPGGGLAKTGGYIAGRNTLVDLCGYRLTTPGIGREAGASLYSLLEMYQGFFLAPHVTAQAIKGARFTAAMLAEFGVEADPLWDAKRTDLIQSVSFHSKDKMIAFAQAIQAASPVNAHVLPIGAYMPGYEDDVIMAAGTFIQGASLELTADGPIREPYQLYVQGGLTYEHVKIAVTRAIENSLLEHHHHHH
- soluble on expression in E. coli: soluble

Sequence: MVLFEKPGKENTRKTLEIAIQKASELSSKKLLIASATGYSARMALEMIPEDMKLVVVTHHAGFEEPDTQEFDEELRKLLKEKGHDVLTATHALSAGERSLRRKFGGIYPLEIIANTLRMFSEGVKVGVEITLMAADAGLVKTSELVVACGGTESGLDSAIVVKPANSPNLFDLKITEILCKPLIS
- soluble on expression in E. coli: soluble

Sequence: YIGSGASQPNRTDVVWMVPSWTCKNEYSIDVEKYGILQNEDQHFVGGKQFAIFYEHSFGKIPYFKAQNESDPKNGGLPQMGDLEAHLIQAEKDINETIPDENFNGIAVIDIEEFRPMWELSWGPFSVYKTESIRLTRQQHPYWSTKQIEWQAERDYEKACQKFFIETLRLGKRLRPNAKWGYYLFPKCNGDVGQKSDTDCSTLFQKFNDNLHWLWGESTALFPSIYLYPSQKQNPEYNFVNSGALITETKRIKRNYCPSCEIHVFTKIEYNPYYTPDDFYSKQNLASTLDLAIKMNANSVVIWSTSQSIGSRCGSLQTYVDNTLGPYLQLTDRNLD
- soluble on expression in E. coli: not soluble

Sequence: MIESVLLLVSGLPGSGKSTLARGMAEALAWPCLDKDDFLEALFDARGIGDAAWRRALSREADSRFLAALQAAPRAVACSWWRHPRGEGGSGTPIGGLARPGRLVLELHCRCPAELAAARFARRVRHPGHLDAQRDPGALSLQLRRAERLGPLGLGQCLILDASVQTDLSGALAWTRDALAAGALADPPRHPLEHHHHHH
- soluble on expression in E. coli: not soluble

Sequence: TLKEMKYKRNQEEIETYYEYTLKIEAINNEMRKFRHDYVNILTTLSEYIREDDMIGLRAYFNKNIVPMKDNLQMNAIKLNGIENLKVREIKGLITAKILRAQEMNIPISIEIPDEVSSINLNMIDLSRSIGIILDNAIEASTEIDDPIIRVAFIESENSVTFIVMNKCADDIPRIHELFQESFSTKGEGRGLGLSTLKEIADNADNVLLDTIIENGFFIQKVEIINN
- soluble on expression in E. coli: not soluble

Sequence: MSEDVSKNLSETLFVKHKQAKETSALTQYMPTSKKILDDREQQEDRAWYRHLRRLQWAWQGLSPIEMEGVLSRIASSTHSRTHDDWLDTVMGYHSGNWTFEWIKLGMEHQRRANDLKGEDAADELFTASLCFSIAGYPHLKNDNLALQAQVLANKAYSEGAEKTQYTIKQIEVPYQKRKIIANLHLPRTDKQLPVVMVSAGLDSLQTDMWRLFRNHFAPKDIAMLTVDMPSVGHSSHWPLTEDSSCLHQAVLNELYSIPYVDHHKVGLVGFRFGGNAMVRLSFLEQEKIKACVALGAPVHDLFTSPKKLQKMPKMYLDMLASRLGKSAVDINSMAGQMMAWSLKVQGFLSSRKTKVPILALSLEGDPVSPYSDNQLVALFSHYGQAKKISSKTITKGYEQSLDLAIKWLEDELLR
- soluble on expression in E. coli: not soluble

Sequence: MAEVTGVRALTGAALDAALEDVARLRIAVFRAWPYLYDGDLDYERDYLQAYRNSDRAIVVGAFDGDRLIGASTGMPLADHADDFAAAFADSGLALDQVFYCAESVLLPDYRGHGVGHRFFDLREGHARALGFAKC
- soluble on expression in E. coli: not soluble

Sequence: MGSDKIHHHHHHVDDNALPVEETFKDIDLANNLKDCGKPLLLSDIVKDVEYVKLETQDNILVGDIKQLKRTEKFVFIYSRNQRHVMMFDTSGKFIRKIGHVGQGPGEIANIHCFTVSDSLVFIYPFSRNGSLTVYDMRDNSFVKEFSLKWPVFFSWTIDVMGDCLVYYPGTVYLPDNSKTFISACVANGKGETLMEQIPYLSSGDKEIVQLSSDPSWLYRGRSNVYSFINDTIYGITCDSIFPRYHLSLGKYKLPSGRYDPTHDYGWGDFVLMQSVYETKEFLFLELGTLL
- soluble on expression in E. coli: not soluble

Sequence: MADEEKVTTEEQALADEWAAALAEAGDASQDDIDALMAQGGATPVAEPSTPRAPMEEFGASPKAPTISGLEGPNLDVILDIPVTISMEVGHTDISIRNLLQLNQGSVIELDRLAGEPLDVLVNGTLIAHGEVVVVNEKFGIRLTDVISPSERIKKLR
- soluble on expression in E. coli: not soluble

Sequence: APAILLVDDEPHSLAAMKLALEDDFDVLTAQGAEAAIAILEEEWVQVIICDQRMPGRTGVDFLTEVRERWPETVRIIITGYTDSASMMAAINDAGIHQFLTKPWHPEQLLSSARNAARMFTLARENERLSLEMRLLERP
- soluble on expression in E. coli: soluble

Sequence: TIEIYKNKIPDGKNAGKDAILIKDNNLIKQLEDAAKKNGAESNQKQGGESNVQKEQIIGYTTTGNVREDGNHIFRVDKINDEQYDRKIIVGVTVETLEQSSTLQSEEAIVLAAPGKYKSTDKKKVTITQGPNIIGIHANEKENAETQKFVDW
- soluble on expression in E. coli: soluble

Sequence: MGSDKIHHHHHHMDTKQTFLEDLKSRDNIKLSLMVMKIIFRETDKLICILADRTGEIKASVPLKDGDIKQGMVIQINGSKNVNLEVKSYKIIRDYNISDYLPTVKRPIEDIMNEIELYTNKYVLSKEGRALNDYFFKDEEFLEKFKKGIGGVSMHHNYIGGLAEHTLNVMKITAKLSEKYKCRRMEVAVLAAKLHDIGKVYEYDCNGPFKYTMRGQMEGHIVIGVELVDRAVRENLNLYPEDFVNRIKGCIVQHHGKLEFGSPREMNMEESFIINYADSIDATMNKISQLKEKTEPDTWSEFDRRIERKLYL
- soluble on expression in E. coli: not soluble

Sequence: MGSDKIHHHHHHMRTICVFNNKGGVGKTTLLCNLAAYFSIKRGKKVLVVDADPQCNATAYMIKEKVLDKLYASSSSDSATINSLIASLKKSKGYGIPPVLRSDGFNVDIVPGDPKFSLAEDFLAKDWLDAIAGDERGLRTTFFFRNLISWARSDGYDLVFFDMGPSLGAINRTVLLSSDHFILPMSSDIFSLRGLQNIEVALKNWTKGIERGLVSFKEDQGTSFKVESGDALSELGVSFLGYVTQQYTAKTVDGKKQPVSAYEKIIKKIDPLVSKHLILPLNKGQKLNYKLGEIPYFQSLVPMAQTATVPIFALKKADGVVGAHFDKVRQFDSVISGIVDKIEANMNSKGN
- soluble on expression in E. coli: not soluble
